Test results as given in paper PMC3765907, “S-Nitrosylation of parkin as a novel regulator of p53-mediated neuronal cell death in sporadic Parkinson’s disease”.

Target: parkin (wild-type, GST-tagged) (UniProt O60260 1-465)
Assay: EMSA; parkin 100 nM to 1 uM, 0.1 nM probe; shift increases with parkin; 1x binding buffer (Panomics), room temperature, 20 min; 0.1 nM biotin probe, 1 uM parkin (100 nM-1 uM titration); 6% PAGE in 0.5x TBE pH 8.3; salt not stated
Conditions: protein: recombinant; tags: GST; label: 5' biotin; blunt

Sequence of parkin (wild-type, GST-tagged) (O60260 whole entry): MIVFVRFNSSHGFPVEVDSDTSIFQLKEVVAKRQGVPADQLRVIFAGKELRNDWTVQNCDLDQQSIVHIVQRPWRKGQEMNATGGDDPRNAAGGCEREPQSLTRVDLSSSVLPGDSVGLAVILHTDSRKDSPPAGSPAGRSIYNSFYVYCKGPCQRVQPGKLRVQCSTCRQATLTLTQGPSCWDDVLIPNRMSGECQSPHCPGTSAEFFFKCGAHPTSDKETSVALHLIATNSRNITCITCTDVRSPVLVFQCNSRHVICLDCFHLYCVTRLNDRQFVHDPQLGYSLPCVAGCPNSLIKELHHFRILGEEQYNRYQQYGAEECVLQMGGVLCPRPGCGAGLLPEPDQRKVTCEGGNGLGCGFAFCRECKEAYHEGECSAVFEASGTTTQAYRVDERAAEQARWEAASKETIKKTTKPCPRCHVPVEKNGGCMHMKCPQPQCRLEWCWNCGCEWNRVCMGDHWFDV

B1: Pp53 (human p53 promoter probe) (dsDNA)
DNA 1: GGCACCAGGTCGGCGAGAATCCTGACTCTGCACCCTCCTCCCCAACTCCATTTCCTTTGCTTCCTCCGGC
DNA 2: GCCGGAGGAAGCAAAGGAAATGGAGTTGGGGAGGAGGGTGCAGAGTCAGGATTCTCGCCGACCTGGTGCC
binding result: binds
